These results are taken from patent publication US20260015399A1 (Boehringer Ingelheim, published 2026).

First the molecules themselves.
B1: Compound 128 (peptide)
peptide: Isovaleryl-APEK([Ahx-γGlu-C18 diacid])PEEAATPEELQRYYVSLRHYYNWLTRQRY-NH2
SMILES: CC(C)CC(=O)N[C@@H](C)C(=O)N1CCC[C@H]1C(=O)N[C@@H](CCC(=O)O)C(=O)N[C@@H](CCCCNC(=O)CCCCCNC(=O)CC[C@H](NC(=O)CCCCCCCCCCCCCCCCC(=O)O)C(=O)O)C(=O)N1CCC[C@H]1C(=O)N[C@@H](CCC(=O)O)C(=O)N[C@@H](CCC(=O)O)C(=O)N[C@@H](C)C(=O)N[C@@H](C)C(=O)N[C@H](C(=O)N1CCC[C@H]1C(=O)N[C@@H](CCC(=O)O)C(=O)N[C@@H](CCC(=O)O)C(=O)N[C@@H](CC(C)C)C(=O)N[C@@H](CCC(N)=O)C(=O)N[C@@H](CCCNC(=N)N)C(=O)N[C@@H](Cc1ccc(O)cc1)C(=O)N[C@@H](Cc1ccc(O)cc1)C(=O)N[C@H](C(=O)N[C@@H](CO)C(=O)N[C@@H](CC(C)C)C(=O)N[C@@H](CCCNC(=N)N)C(=O)N[C@@H](Cc1c[nH]cn1)C(=O)N[C@@H](Cc1ccc(O)cc1)C(=O)N[C@@H](Cc1ccc(O)cc1)C(=O)N[C@@H](CC(N)=O)C(=O)N[C@@H](Cc1c[nH]c2ccccc12)C(=O)N[C@@H](CC(C)C)C(=O)N[C@H](C(=O)N[C@@H](CCCNC(=N)N)C(=O)N[C@@H](CCC(N)=O)C(=O)N[C@@H](CCCNC(=N)N)C(=O)N[C@@H](Cc1ccc(O)cc1)C(N)=O)[C@@H](C)O)C(C)C)[C@@H](C)O
B2: Compound 150 (peptide)
peptide: Isovaleryl-APEK([Ahx-γGlu-C18 diacid])PEEAASPEEIQRYYVSLRHYYNWLTRQRY-NH2
SMILES: CC[C@H](C)[C@H](NC(=O)[C@H](CCC(=O)O)NC(=O)[C@H](CCC(=O)O)NC(=O)[C@@H]1CCCN1C(=O)[C@H](CO)NC(=O)[C@H](C)NC(=O)[C@H](C)NC(=O)[C@H](CCC(=O)O)NC(=O)[C@H](CCC(=O)O)NC(=O)[C@@H]1CCCN1C(=O)[C@H](CCCCNC(=O)CCCCCNC(=O)CC[C@H](NC(=O)CCCCCCCCCCCCCCCCC(=O)O)C(=O)O)NC(=O)[C@H](CCC(=O)O)NC(=O)[C@@H]1CCCN1C(=O)[C@H](C)NC(=O)CC(C)C)C(=O)N[C@@H](CCC(N)=O)C(=O)N[C@@H](CCCNC(=N)N)C(=O)N[C@@H](Cc1ccc(O)cc1)C(=O)N[C@@H](Cc1ccc(O)cc1)C(=O)N[C@H](C(=O)N[C@@H](CO)C(=O)N[C@@H](CC(C)C)C(=O)N[C@@H](CCCNC(=N)N)C(=O)N[C@@H](Cc1c[nH]cn1)C(=O)N[C@@H](Cc1ccc(O)cc1)C(=O)N[C@@H](Cc1ccc(O)cc1)C(=O)N[C@@H](CC(N)=O)C(=O)N[C@@H](Cc1c[nH]c2ccccc12)C(=O)N[C@@H](CC(C)C)C(=O)N[C@H](C(=O)N[C@@H](CCCNC(=N)N)C(=O)N[C@@H](CCC(N)=O)C(=O)N[C@@H](CCCNC(=N)N)C(=O)N[C@@H](Cc1ccc(O)cc1)C(N)=O)[C@@H](C)O)C(C)C
B3: Compound 136 (peptide)
peptide: Isovaleryl-APEK([Ahx-γGlu-C18 diacid])PEADATPEELQRYYVALRHYYNWLTRQRY-NH2
SMILES: CC(C)CC(=O)N[C@@H](C)C(=O)N1CCC[C@H]1C(=O)N[C@@H](CCC(=O)O)C(=O)N[C@@H](CCCCNC(=O)CCCCCNC(=O)CC[C@H](NC(=O)CCCCCCCCCCCCCCCCC(=O)O)C(=O)O)C(=O)N1CCC[C@H]1C(=O)N[C@@H](CCC(=O)O)C(=O)N[C@@H](C)C(=O)N[C@@H](CC(=O)O)C(=O)N[C@@H](C)C(=O)N[C@H](C(=O)N1CCC[C@H]1C(=O)N[C@@H](CCC(=O)O)C(=O)N[C@@H](CCC(=O)O)C(=O)N[C@@H](CC(C)C)C(=O)N[C@@H](CCC(N)=O)C(=O)N[C@@H](CCCNC(=N)N)C(=O)N[C@@H](Cc1ccc(O)cc1)C(=O)N[C@@H](Cc1ccc(O)cc1)C(=O)N[C@H](C(=O)N[C@@H](C)C(=O)N[C@@H](CC(C)C)C(=O)N[C@@H](CCCNC(=N)N)C(=O)N[C@@H](Cc1c[nH]cn1)C(=O)N[C@@H](Cc1ccc(O)cc1)C(=O)N[C@@H](Cc1ccc(O)cc1)C(=O)N[C@@H](CC(N)=O)C(=O)N[C@@H](Cc1c[nH]c2ccccc12)C(=O)N[C@@H](CC(C)C)C(=O)N[C@H](C(=O)N[C@@H](CCCNC(=N)N)C(=O)N[C@@H](CCC(N)=O)C(=O)N[C@@H](CCCNC(=N)N)C(=O)N[C@@H](Cc1ccc(O)cc1)C(N)=O)[C@@H](C)O)C(C)C)[C@@H](C)O
B4: Compound 184 (peptide)
peptide: Isovaleryl-APEK([Ahx-γGlu-C18 diacid])PEADATPEEIQRYYVALRHYYNWLTRQRY-NH2
SMILES: CC[C@H](C)[C@H](NC(=O)[C@H](CCC(=O)O)NC(=O)[C@H](CCC(=O)O)NC(=O)[C@@H]1CCCN1C(=O)[C@@H](NC(=O)[C@H](C)NC(=O)[C@H](CC(=O)O)NC(=O)[C@H](C)NC(=O)[C@H](CCC(=O)O)NC(=O)[C@@H]1CCCN1C(=O)[C@H](CCCCNC(=O)CCCCCNC(=O)CC[C@H](NC(=O)CCCCCCCCCCCCCCCCC(=O)O)C(=O)O)NC(=O)[C@H](CCC(=O)O)NC(=O)[C@@H]1CCCN1C(=O)[C@H](C)NC(=O)CC(C)C)[C@@H](C)O)C(=O)N[C@@H](CCC(N)=O)C(=O)N[C@@H](CCCNC(=N)N)C(=O)N[C@@H](Cc1ccc(O)cc1)C(=O)N[C@@H](Cc1ccc(O)cc1)C(=O)N[C@H](C(=O)N[C@@H](C)C(=O)N[C@@H](CC(C)C)C(=O)N[C@@H](CCCNC(=N)N)C(=O)N[C@@H](Cc1c[nH]cn1)C(=O)N[C@@H](Cc1ccc(O)cc1)C(=O)N[C@@H](Cc1ccc(O)cc1)C(=O)N[C@@H](CC(N)=O)C(=O)N[C@@H](Cc1c[nH]c2ccccc12)C(=O)N[C@@H](CC(C)C)C(=O)N[C@H](C(=O)N[C@@H](CCCNC(=N)N)C(=O)N[C@@H](CCC(N)=O)C(=O)N[C@@H](CCCNC(=N)N)C(=O)N[C@@H](Cc1ccc(O)cc1)C(N)=O)[C@@H](C)O)C(C)C
B5: Compound 193 (peptide)
peptide: Isovaleryl-APEK([Ahx-γGlu-C18 diacid])PEEEASPEEIQRYYVSLRHYYNWLTRQRY-NH2
SMILES: CC[C@H](C)[C@H](NC(=O)[C@H](CCC(=O)O)NC(=O)[C@H](CCC(=O)O)NC(=O)[C@@H]1CCCN1C(=O)[C@H](CO)NC(=O)[C@H](C)NC(=O)[C@H](CCC(=O)O)NC(=O)[C@H](CCC(=O)O)NC(=O)[C@H](CCC(=O)O)NC(=O)[C@@H]1CCCN1C(=O)[C@H](CCCCNC(=O)CCCCCNC(=O)CC[C@H](NC(=O)CCCCCCCCCCCCCCCCC(=O)O)C(=O)O)NC(=O)[C@H](CCC(=O)O)NC(=O)[C@@H]1CCCN1C(=O)[C@H](C)NC(=O)CC(C)C)C(=O)N[C@@H](CCC(N)=O)C(=O)N[C@@H](CCCNC(=N)N)C(=O)N[C@@H](Cc1ccc(O)cc1)C(=O)N[C@@H](Cc1ccc(O)cc1)C(=O)N[C@H](C(=O)N[C@@H](CO)C(=O)N[C@@H](CC(C)C)C(=O)N[C@@H](CCCNC(=N)N)C(=O)N[C@@H](Cc1c[nH]cn1)C(=O)N[C@@H](Cc1ccc(O)cc1)C(=O)N[C@@H](Cc1ccc(O)cc1)C(=O)N[C@@H](CC(N)=O)C(=O)N[C@@H](Cc1c[nH]c2ccccc12)C(=O)N[C@@H](CC(C)C)C(=O)N[C@H](C(=O)N[C@@H](CCCNC(=N)N)C(=O)N[C@@H](CCC(N)=O)C(=O)N[C@@H](CCCNC(=N)N)C(=O)N[C@@H](Cc1ccc(O)cc1)C(N)=O)[C@@H](C)O)C(C)C

*1 amine or outer side, *2 acyl side, *3 side chain or, on linkers, in order; H or OH if unused. Side-chain parts run from the residue outwards. The star is where a group is joined. C18 diacid = O=C(O)CCCCCCCCCCCCCCCCC(=O)*; γGlu = O=C(O)[C@H](CCC(=O)[*:2])N[*:1]; Isovaleryl = CC(C)CC(=O)*; Ahx = NCCCCCC(=O)O

human NPY4 receptor, sequence (P50391 whole entry): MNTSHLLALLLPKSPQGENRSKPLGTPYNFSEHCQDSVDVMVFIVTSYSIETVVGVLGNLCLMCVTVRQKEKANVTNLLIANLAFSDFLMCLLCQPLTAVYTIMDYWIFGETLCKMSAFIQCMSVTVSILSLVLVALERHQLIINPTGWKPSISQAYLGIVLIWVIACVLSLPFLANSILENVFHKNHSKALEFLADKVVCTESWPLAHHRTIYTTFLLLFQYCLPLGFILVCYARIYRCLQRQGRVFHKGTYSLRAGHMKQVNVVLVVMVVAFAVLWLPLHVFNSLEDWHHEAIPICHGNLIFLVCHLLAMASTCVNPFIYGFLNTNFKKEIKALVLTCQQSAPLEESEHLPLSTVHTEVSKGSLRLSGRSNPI

One assay has as its target T1, human NPY2 receptor (human, UniProt P49146 1-381).
T1 construct: whole, on cells; also called hNPY2-R; hNPY2R
T1 sequence (looked up): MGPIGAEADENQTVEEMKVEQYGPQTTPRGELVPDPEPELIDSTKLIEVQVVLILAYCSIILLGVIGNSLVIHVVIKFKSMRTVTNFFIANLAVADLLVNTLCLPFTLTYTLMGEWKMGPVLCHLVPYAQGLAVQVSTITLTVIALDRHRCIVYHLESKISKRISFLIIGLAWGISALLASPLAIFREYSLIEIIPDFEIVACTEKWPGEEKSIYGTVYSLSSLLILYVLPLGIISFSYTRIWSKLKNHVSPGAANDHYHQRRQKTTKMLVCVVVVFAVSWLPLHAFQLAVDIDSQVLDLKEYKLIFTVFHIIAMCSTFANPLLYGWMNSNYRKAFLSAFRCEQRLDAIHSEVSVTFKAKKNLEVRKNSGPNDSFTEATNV
In words: RLB: displacement of 125I-PYY(1-36) from hNPY2R membranes.
As to B1, the affinity corresponds to a Ki of 2.91 nM.
Still for that read-out and setting: the same measure for B2: 2.18 nM; for B3: 1.07 nM.
Still for that read-out and setting: the figure for B4 is 0.64 nM; for B5 it is 3.42 nM.

The target in the next assay is T2, human NPY1 receptor (human, UniProt P25929 1-384).
T2 sequence (looked up): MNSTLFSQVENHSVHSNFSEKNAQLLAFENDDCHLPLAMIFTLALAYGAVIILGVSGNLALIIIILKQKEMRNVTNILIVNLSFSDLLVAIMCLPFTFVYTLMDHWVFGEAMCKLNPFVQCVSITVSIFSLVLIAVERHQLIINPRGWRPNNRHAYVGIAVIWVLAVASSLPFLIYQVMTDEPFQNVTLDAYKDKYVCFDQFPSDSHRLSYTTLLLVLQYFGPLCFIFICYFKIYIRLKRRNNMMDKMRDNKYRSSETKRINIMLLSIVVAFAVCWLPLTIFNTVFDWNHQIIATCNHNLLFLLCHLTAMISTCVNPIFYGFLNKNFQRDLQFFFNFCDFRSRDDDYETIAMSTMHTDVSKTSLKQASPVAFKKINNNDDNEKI
In words: cell-based or functional assay.
Consider B1, for which the “EC50, HTRF cAMP Gi assay” value was over 5000 nM.
As to B2, the “EC50, HTRF cAMP Gi assay” value was over 5000 nM.
B3: the “EC50, HTRF cAMP Gi assay” value is over 5000 nM.
Take B4: the “EC50, HTRF cAMP Gi assay” value is over 5000 nM.
Still for that read-out and setting: the same measure for B5: over 5000 nM.

For the next assay, the target named is T3, human NPY5 receptor (human, UniProt Q15761 1-445).
T3 sequence (looked up): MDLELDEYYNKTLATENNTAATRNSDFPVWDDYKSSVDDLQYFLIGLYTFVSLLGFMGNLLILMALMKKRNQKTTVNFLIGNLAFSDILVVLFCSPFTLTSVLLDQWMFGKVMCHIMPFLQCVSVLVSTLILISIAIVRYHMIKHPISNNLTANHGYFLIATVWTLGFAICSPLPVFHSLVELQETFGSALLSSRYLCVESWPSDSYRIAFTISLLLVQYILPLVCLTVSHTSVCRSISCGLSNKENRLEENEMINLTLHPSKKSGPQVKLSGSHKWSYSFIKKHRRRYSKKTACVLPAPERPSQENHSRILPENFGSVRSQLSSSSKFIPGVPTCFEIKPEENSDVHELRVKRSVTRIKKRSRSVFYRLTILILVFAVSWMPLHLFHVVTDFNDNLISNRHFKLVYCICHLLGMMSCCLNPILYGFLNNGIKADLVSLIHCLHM
Kind of assay: cell-based or functional assay.
For the molecule B1, the “EC50, HTRF cAMP Gi assay” value was over 5000 nM.
Same read-out and setting: the figure for B2 is over 5000 nM.
Regarding B3, the “EC50, HTRF cAMP Gi assay” value is over 5000 nM.
The same measure, in the same setting: the figure for B4 is over 5000 nM.
Consider B5, for which the “EC50, HTRF cAMP Gi assay” value was over 5000 nM.

The next assay concerns the target human NPY4 receptor (human, UniProt P50391 1-375). Kind of assay: cell-based or functional assay.
For B1, the “EC50, HTRF cAMP Gi assay” value was over 5000 nM.
Same read-out and setting: the figure for B2 is over 5000 nM; for B3 it is over 5000 nM; for B4 it is over 5000 nM.
On to B5, for which the “EC50, HTRF cAMP Gi assay” value is over 5000 nM.

The target of a further assay is T1, human NPY2 receptor. In words: cell-based or functional assay.
With B1, the “EC50, HTRF cAMP Gi assay” value was 0.344 nM.
For the molecule B2, the “EC50, HTRF cAMP Gi assay” value is 0.243 nM.
Regarding B3, the “EC50, HTRF cAMP Gi assay” value came to 0.138 nM.
Same read-out and setting: the figure for B4 is 0.232 nM; for B5 it is 0.331 nM.
